B1: U6.mi405G: mi405 construct with altered flanking sequences (nucleic acid)
DNA: ACGCCGCCATCTCTAGGCCCGCGCCGGCCCCCTCGCACAGACTTGTGGGAGAAGCTCGGCTACTCCCCTGCCCCGGTTAATTTGCATATAATATTTCCTAGTAACTATAGAGGCTTAATGTGCGATAAAAGACAGATAATCTGTTCTTTTTAATACTAGCTACATTTTACATGATAGGCTTGGATTTCTATAAGAGATACAAATACTAAATTATTATTTTAAAAAACAGCACAAAAGGAAACTCACCCTAACTGTAAAGTAATTGTGTGTTTTGAGACTATAAATATCCCTTGGAGAAAAGCCTTGTTTGACCGTTTAAACTCGAGTGAGCGATCCAGGATTCAGATCTGGTTTCTGTAAAGCCACAGATGGGAAACCAGATCTGAATCCTGGACTGCCTACTAGAGAATTCTTCGATTCTGCTTTTTT
B2: U6.mi405H: mi405 construct with altered flanking sequences (nucleic acid)
DNA: ACGCCGCCATCTCTAGGCCCGCGCCGGCCCCCTCGCACAGACTTGTGGGAGAAGCTCGGCTACTCCCCTGCCCCGGTTAATTTGCATATAATATTTCCTAGTAACTATAGAGGCTTAATGTGCGATAAAAGACAGATAATCTGTTCTTTTTAATACTAGCTACATTTTACATGATAGGCTTGGATTTCTATAAGAGATACAAATACTAAATTATTATTTTAAAAAACAGCACAAAAGGAAACTCACCCTAACTGTAAAGTAATTGTGTGTTTTGAGACTATAAATATCCCTTGGAGAAAAGCCTTGTTTGACCGTTTAAACTCGAGTGAGCGATCCAGGATTCAGATCTGGTTTCTGTAAAGCCACAGATGGGAAACCAGATCTGAATCCTGGACTGCCTACTAGAGCGCACGCCAGTTTTTT
B3: U6.mi405F: mi405 with one G at 5' end and 16 mer 3' flanking sequence with single CNNC motif (nucleic acid)
DNA: ACGCCGCCATCTCTAGGCCCGCGCCGGCCCCCTCGCACAGACTTGTGGGAGAAGCTCGGCTACTCCCCTGCCCCGGTTAATTTGCATATAATATTTCCTAGTAACTATAGAGGCTTAATGTGCGATAAAAGACAGATAATCTGTTCTTTTTAATACTAGCTACATTTTACATGATAGGCTTGGATTTCTATAAGAGATACAAATACTAAATTATTATTTTAAAAAACAGCACAAAAGGAAACTCACCCTAACTGTAAAGTAATTGTGTGTTTTGAGACTATAAATATCCCTTGGAGAAAAGCCTTGTTTGCTCGAGTGAGCGATCCAGGATTCAGATCTGGTTTCTGTAAAGCCACAGATGGGAAACCAGATCTGAATCCTGGACTGCCTACTAGTAATTCTTCGATTCTGCTTTTTT
B4: H1.mir-675: commercially available H1 promoter mir-675 expression plasmid (SBI Biosciences) (nucleic acid)
DNA: GAACGCTGACGTCATCAACCCGCTCCAAGGAATCGCGGGCCCAGTGTCACTAGGCGGGAACACCCAGCGCGCGTGCGCCCTGGCAGGAAGATGGCTGTGAGGGACAGGGGAGTGGCGCCCTGCAATATTTGCATGTCGCTATGTGTTCTGGGAAATCACCATAAACGTGAAATGTCTTTGGATTTGGGAATCTTATAAGTTCTGTATGAGACCACCCCCCAGGGTCTGGTGCGGAGAGGGCCCACAGTGGACTTGGTGACGCTGTATGCCCTCACCGCTCAGCCCCTGGGGAATTCTTCGATTCTGCTTTTTT
B5: U6.mir-675: U6 promoter-driven mir-675 expression plasmid with 40 nt 5' and 47 nt 3' flanking sequences (nucleic acid)
DNA: GACGCCGCCATCTCTAGGCCCGCGCCGGCCCCCTCGCACAGACTTGTGGGAGAAGCTCGGCTACTCCCCTGCCCCGGTTAATTTGCATATAATATTTCCTAGTAACTATAGAGGCTTAATGTGCGATAAAAGACAGATAATCTGTTCTTTTTAATACTAGCTACATTTTACATGATAGGCTTGGATTTCTATAAGAGATACAAATACTAAATTATTATTTTAAAAAACAGCACAAAAGGAAACTCACCCTAACTGTAAAGTAATTGTGTGTTTTGAGACTATAAATATCCCTTGGAGAAAAGCCTTGTTTGCGTTTAGTGAACCGTCAGATGGTACCGTTTAAACTCGAGCCCAGGGTCTGGTGCGGAGAGGGCCCACAGTGGACTTGGTGACGCTGTATGCCCTCACCGCTCAGCCCCTGGGACTAGAGCGGCCGCCACAGCGGGGAGATCCAGACATGATAAGATACATTTTTT

Columns and labels:
[1] = system: DUX4 protein; experiment: Western blot of V5-tagged DUX4 protein in co-transfected HEK293 cells; assay type: cell-based, human; conditions: for reduction of DUX4 protein levels compared to U6.miGFP: DUX4:mi405 molar ratio 2 to 1; for reduction of DUX4 protein levels compared to U6.miGFP / reduction of DUX4 protein levels compared to U6.mi405F / reduction of DUX4 protein levels relative to U6.mi405 / reduction of DUX4 protein levels / Average inhibition efficiency (%) of DUX4 protein levels: HEK293; for reduction of DUX4 protein levels compared to U6.mi405F / reduction of DUX4 protein levels relative to U6.mi405: molar ratio 12 to 1, N=4; for Average inhibition efficiency (%) of DUX4 protein levels: CMV.DUX4-FL/CMV.eGFP, molar ratio 1 to 3, eGFP normalizer, relative to U6-milacZ, N = 3-8; for effect on DUX4 protein level (DUX4-FL WT): FIG. 18, HEK293 western blot
[2] = system: mi405 mature sequence; experiment: QPCR of mature mi405 (standard TaqMan cDNA synthesis) in HEK293 cells; assay type: cell-based, human; conditions: 24 h after transfection
Procedure: TaqMan Gene Expression Assay. QRT-PCR was carried out to quantify the expression of pri-mir-675, mir-675-5p and mi405 using TaqMan probes (ThermoFisher Scientific). Experiments were started by eliminating genomic DNA from the RNA preparations, and then cDNA was generated using the High-Capacity cDNA Reverse Transcription Kit (Applied Biosystems) following manufacturer's instructions. Within the same cDNA reaction, 1×RT random hexamer primers were used to generate the cDNA for RPL13A, used as a reference gene, and for pri-mir-675. To generate the cDNA for mir-675, the RT mir-675 reverse primer provided by ThermoFisher Scientific was used. For mi405, the mi405 qPCR protocol was done as it was previously described [Wallace et al., Mol. Ther. Methods Clin. Dev. 8: 121-30 (2018)]. To quantify mir-675 and mi405 levels, RNA was extracted using the total RNA protocol for the mirVana miRNA Isolation Kit (Ambion) from HEK293 cells. cDNA was generated using the High-Capacity cDNA Reverse Transcription Kit (Applied Biosystems) using a mix of random hexamer primers and specific reverse primer for pri-mir-675 and mir-675-5p. For mi405, 200 nM of the stem-loop forming primer (5′-[…]-3′) (SEQ ID NO: 144) was also used for the RT step. A custom TaqMan assay (Applied Biosystems) including 1.5 μM of Forward primer (5′-[…]-3′) (SEQ ID NO: 145), 0.7 μM of Reverse primer (5′-GTGCAGGGTCCGAGGT-3′) (SEQ ID NO: 146), and 0.2 μM of mi405 probe (5′-6FAM-ATACGACGTCCAGGAT-3′) (SEQ ID NO: 147) was then run using the CFX Connect Real Time system apparatus (Bio-Rad). RPL13A (Mm02526700_g1; Applied Biosystems) served as the reference gene. The TaqMan gene expression assay consisted of using the TaqMan Gene Expression Master mix and TaqMan probes purchased from ThermoFisher Scientific. 1× of probe was mixed with 1× of the TaqMan Gene Expression Master mix (ThermoFisher Scientific), and with 20 ng of cDNA. The mir-675- and mi405-specific primers and probes were designed to quantify only the mir-675-5p and mi405 mature sequence (see TaqMan Gene Expression Master mix protocol).
Apart from the effect on the inhibition efficiency of mi405, the effect of the flanking sequences on the expression of the miRNA also was tested. Therefore, the expression of the processed mature mi405 sequences was quantified using the standard and advanced TaqMan cDNA synthesis reaction. In the former reaction, a reverse primer detects the mature mi405 sequence following a stem-loop primer-based small RNA detection principle (ThermoFisher Scientific) (Jung et al., RNA (2013) 19: 1-10). The amplification and quantification steps were then performed using a standard TaqMan probe specific to mi405 that base pairs at the junction between the mi405 mature sequence and the reverse primer sequence (FIG. 6A). […] In the TaqMan advanced cDNA synthesis reaction, the mature sequence is extended through ligation of an adaptor sequence at the 5′ end and through the enzymatic addition of a polyA tail at the 3′ end of the mature mi405 sequence. The amplification and quantification steps were then performed using a TaqMan advanced probe specific to mi405 that normally base pairs with the 3′ end of the mature miRNA and with part of the adaptor sequence. Here, an additional TaqMan advanced probe (embedded probe) that only base pairs with the mature sequence of mi405 (FIG. 6B) was used. As a result, following TaqMan advanced cDNA synthesis reaction, droplet digital PCR (ddPCR) was performed to quantify mi405, mi405F, mi405B, mi405C, mi405G and mi405H expression levels. For this, TaqMan advanced embedded and overlapped mi405 probes (FIG. 6B) were used.

Row | Molecule | reduction of DUX4 protein levels compared to U6.miGFP ([1]; 24 h) [%] | reduction of DUX4 protein levels compared to U6.mi405F ([1]; 24 h) [%] | reduction of DUX4 protein levels relative to U6.mi405 ([1]; 24 h) [%] | levels of mature mi405 sequence compared to U6.mi405 [2] | increase of inhibition efficiency compared to U6.mi405 (western blot) ([1]; 1:4 DUX4:mi405 molar ratio, 24 h) [%] | reduction of DUX4 protein levels ([1]; 1:4 DUX4:mi405 molar ratio, 24 h, normalized to miGFP, N=2) [%] | reduction of mature mi405 sequence expression relative to U6.mi405 ([2]; normalized to RPL13A) [%] | Average inhibition efficiency (%) of DUX4 protein levels [1] | effect on DUX4 protein level (DUX4-FL WT) [1] | reduction of DUX4 protein levels ([1]; AAV.CMV.DUX4-FL co-transfection, 24 h, β-actin normalizer, relative to U6.milacZ) [%]
1 | B1 | 88±2 | 52±9 | 71±5 | greater or higher with the difference not being statistically significant |  |  |  |  |  | 
2 | B2 | 79±6 | 33±14 | 60±8 | greater or higher with the difference not being statistically significant |  |  |  |  |  | 
3 | B3 | 81±9 |  | 40±5 |  | 20 | 99±1 | 85±5 |  |  | 
4 | B4 |  |  |  |  |  |  |  | 68 ± 5 (N = 4) % | reduce DUX4 protein level | 
5 | B5 |  |  |  |  |  |  |  | 43±4% | reduce DUX4 protein level | 46±11
